# Test results from patent publication US20230391888A1 (Sanofi, published 2023).
# Positions count from the first letter of the chain named.
# T1: Human IL4 (IL004, Millipore) (human, UniProt P05112 25-153)
# T1 sequence (looked up): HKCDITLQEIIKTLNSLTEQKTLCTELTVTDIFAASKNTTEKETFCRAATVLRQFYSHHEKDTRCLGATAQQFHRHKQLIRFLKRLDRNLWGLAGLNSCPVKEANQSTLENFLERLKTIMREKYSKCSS
# T2: human CD123-Fc-His fusion protein (internal source) (human, UniProt P26951 19-305)
# T2 construct: not shown: Fc and His tag
# T2 sequence (looked up): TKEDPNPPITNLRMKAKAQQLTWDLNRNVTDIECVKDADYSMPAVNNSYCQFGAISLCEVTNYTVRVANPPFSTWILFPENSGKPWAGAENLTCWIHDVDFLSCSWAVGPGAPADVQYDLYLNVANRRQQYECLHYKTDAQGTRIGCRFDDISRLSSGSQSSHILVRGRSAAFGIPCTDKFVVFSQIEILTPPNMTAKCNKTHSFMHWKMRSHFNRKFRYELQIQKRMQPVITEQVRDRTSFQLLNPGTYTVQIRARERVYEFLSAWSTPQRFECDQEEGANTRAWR
# B1: IL13 mAb (ID 3, anti-IL13-VL3-IGKC / anti-IL13-VH2-IGHG1) (antibody, human IgG1, kappa, V domains shown)
# VH: EVQLKESGPGLVAPGGSLSITCTVSGFSLTDSSINWVRQPPGKGLEWLGMIWGDGRIDYADALKSRLSISKDSSKSQVFLEMTSLRTDDTATYYCARDGYFPYAMDFWGQGTSVTVSS
# VL: DIVLTQSPASLAVSLGQRATISCRASESVDSYGQSYMHWYQQKAGQPPKLLIYLASNLESGVPARFSGSGSRTDFTLTIDPVQAEDAATYYCQQNAEDSRTFGGGTKLEIKR
# notes: also called IL13mAb-huIgG1
# B2: dsTrasKO variant 1 (dsTrasKO1) (antibody, V domains shown)
# VH: EVQLVESGGGLVQPGGSLRLSCAASGFNIKDTAIHWVRQAPGKCLEWVAEIYPTNGYTEYADSVKGRFTISADTSKNTAYLQMNSLRAEDTAVYYCSRWGGDGFAAMDYWGQGTLVTVSS
# VL: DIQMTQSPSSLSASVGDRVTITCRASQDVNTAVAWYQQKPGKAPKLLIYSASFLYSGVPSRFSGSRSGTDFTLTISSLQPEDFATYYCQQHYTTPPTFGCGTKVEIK
# notes: also called dsTrastuKO variant 1; Variant1 (TrasKO1) with VH44C/VL100C disulfide
# B3: dsTrasKO variant 2 (dsTrasKO2) (antibody, V domains shown)
# VH: B2 VH with A33Y, A105Y
# VL: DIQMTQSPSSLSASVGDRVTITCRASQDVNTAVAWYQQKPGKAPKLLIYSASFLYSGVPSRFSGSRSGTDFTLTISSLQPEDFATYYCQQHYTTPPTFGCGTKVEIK
# notes: also called dsTrastuKO variant 2; Variant2 (TrasKO2) with VH44C/VL100C disulfide
# B4: dsTrasKO variant 3 (dsTrasKO3) (antibody, V domains shown)
# VH: B2 VH with E50R, E59R
# VL: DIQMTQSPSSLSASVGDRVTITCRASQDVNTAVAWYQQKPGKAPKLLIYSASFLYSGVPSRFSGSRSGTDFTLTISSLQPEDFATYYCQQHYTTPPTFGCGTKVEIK
# notes: also called dsTrastuKO variant 3; Variant3 (TrasKO3) with VH44C/VL100C disulfide
# B5: IL13 pseudo-IgG (ID 22) (antibody)
# light: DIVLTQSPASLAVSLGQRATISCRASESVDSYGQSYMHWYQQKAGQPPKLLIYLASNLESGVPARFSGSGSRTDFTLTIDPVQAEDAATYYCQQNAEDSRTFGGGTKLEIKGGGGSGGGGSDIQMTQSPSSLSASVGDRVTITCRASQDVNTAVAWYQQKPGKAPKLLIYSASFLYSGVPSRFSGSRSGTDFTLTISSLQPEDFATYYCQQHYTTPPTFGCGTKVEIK
# heavy: EVQLKESGPGLVAPGGSLSITCTVSGFSLTDSSINWVRQPPGKGLEWLGMIWGDGRIDYADALKSRLSISKDSSKSQVFLEMTSLRTDDTATYYCARDGYFPYAMDFWGQGTSVTVSSGGGGSGGGGSEVQLVESGGGLVQPGGSLRLSCAASGFNIKDTYIHWVRQAPGKCLEWVAEIYPTNGYTEYADSVKGRFTISADTSKNTAYLQMNSLRAEDTAVYYCSRWGGDGFYAMDYWGQGTLVTVSSDKTHTHHHHHH
# notes: also called IL13 mAb Pseudo-IgG
# B6: PD1 × IL13 bispecific (ID 26, anti-PD1-dsTrasKO2-Fc knob × anti-IL13-huIgG1 hole-RF) (bispecific antibody)
# light 1: not shown
# heavy 1: not shown
# light 2: not shown
# heavy 2: EVQLKESGPGLVAPGGSLSITCTVSGFSLTDSSINWVRQPPGKGLEWLGMIWGDGRIDYADALKSRLSISKDSSKSQVFLEMTSLRTDDTATYYCARDGYFPYAMDFWGQGTSVTVSSASTKGPSVFPLAPSSKSTSGGTAALGCLVKDYFPEPVTVSWNSGALTSGVHTFPAVLQSSGLYSLSSVVTVPSSSLGTQTYICNVNHKPSNTKVDKKVEPKSCDKTHTCPPCPAPELLGGPSVFLFPPKPKDTLMISRTPEVTCVVVDVSHEDPEVKFNWYVDGVEVHNAKTKPREEQYNSTYRVVSVLTVLHQDWLNGKEYKCKVSNKALPAPIEKTISKAKGQPREPQVCTLPPSRDELTKNQVSLSCAVKGFYPSDIAVEWESNGQPENNYKTTPPVLDSDGSFFLVSKLTVDKSRWQQGNVFSCSVMHEALHNRFTQKSLSLSPG
# notes: PD1 arm is the pseudoFab (dsTrasKO2), IL13 arm the normal Fab
# B7: IL4 mAb (ID 18, anti-IL4-VL1-IGKC / anti-IL4-VH1-IgG1) (antibody, V domains shown)
# VH: QVQLQQSGPELVKPGASVKISCKASGYSFTSYWIHWIKQRPGQGLEWIGMIDPSDGETRLNQRFQGRATLTVDESTSTAYMQLRSPTSEDSAVYYCTRLKEYGNYDSFYFDVWGAGTLVTVSS
# VL: DIQMTQSPASLSVSVGDTITLTCHASQNIDVWLSWFQQKPGNIPKLLIYKASNLHTGVPSRFSGSGSGTGFTLTISSLQPEDIATYYCQQAHSYPFTFGGGTKLEIKR
# notes: also called IL4mAb-huIgG1
# B8: anti-CD3ε-dsTrasKO2 × anti-CD123 (ID 38, alternative anti-CD3ε binding domain) (bispecific antibody, human IgG1, kappa, L234A L235A)
# light 1: not shown
# heavy 1: not shown
# heavy 2: EVQLQQSGPELVKPGASVKMSCKASGYTFTDYYMKWVKQSHGKSLEWIGDIIPSNGATFYNQKFKGKATLTVDRSSSTAYMHLNSLTSEDSAVYYCTRSHLLRASWFAYWGQGTLVTVSAASTKGPSVFPLAPSSKSTSGGTAALGCLVKDYFPEPVTVSWNSGALTSGVHTFPAVLQSSGLYSLSSVVTVPSSSLGTQTYICNVNHKPSNTKVDKKVEPKSCDKTHTCPPCPAPEAAGGPSVFLFPPKPKDTLMISRTPEVTCVVVDVSHEDPEVKFNWYVDGVEVHNAKTKPREEQYNSTYRVVSVLTVLHQDWLNGKEYKCKVSNKALPAPIEKTISKAKGQPREPQVCTLPPSRDELTKNQVSLSCAVKGFYPSDIAVEWESNGQPENNYKTTPPVLDSDGSFFLVSKLTVDKSRWQQGNVFSCSVMHEALHNRFTQKSLSLSPG
# light 2: DFVMTQSPSSLTVTAGEKVTMSCKSSQSLLNSGNQKNYLTWYLQKPGQPPKLLIYWASTRESGVPDRFTGSGSGTDFTLTISSVQAEDLAVYYCQNDYSYPYTFGGGTKLEIKRTVAAPSVFIFPPSDEQLKSGTASVVCLLNNFYPREAKVQWKVDNALQSGNSQESVTEQDSKDSTYSLSSTLTLSKADYEKHKVYACEVTHQGLSSPVTKSFNRGEC
# B9: anti-TNP-dsTrasKO2 × anti-CD123 Negative control (ID 44) (bispecific antibody, human IgG1, kappa, L234A L235A)
# light 1: not shown
# heavy 1: not shown
# heavy 2: B8 heavy 2
# light 2: B8 light 2
# Tests used:
# [1] = molecular target: T3, human IL13 (IL012, Millipore) (human, UniProt P35225 35-146); assay: SPR, BIAcore 3000; antibody captured by anti-human Fc, antigen as analyte; column head says nM, but kd/ka gives M
# T3 sequence (P35225 35-146 limits assumed): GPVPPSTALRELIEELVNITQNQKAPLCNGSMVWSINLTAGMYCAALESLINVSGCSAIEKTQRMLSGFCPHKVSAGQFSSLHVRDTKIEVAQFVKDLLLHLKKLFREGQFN
# Protocol: (§1) Surface plasmon resonance (SPR) was used to assess the binding of antigens to antibody. Binding of antigens to the antibody constructs was measured using surface plasmon resonance (SPR) with a BIAcore 3000 instrument (GE Healthcare) with HBS-EP buffer (GE Healthcare). Human IL4 (IL004, Millipore) and human IL13 (IL012, Millipore), human HER2 (1129-ER, R&D Systems), human TNFa (H8916, SIGMA Aldrich), human CTLA4 (CT4-H5229, ACRO Biosystems), human PD-1 (8986-PD, R&D Systems), and human IL6Ra (227-SR/CF, R&D Systems) were used as antigens. The anti-human Fc capture antibody (human antibody capture kit, GE Life Sciences) was immobilized via primary amine groups (11000 RU) on a research grade CM5 chip (GE Life Sciences) using standard procedures. […] Binding tests with HER2 was performed by capture of the antigen with the anti-human Fc antibody. The tested antibody constructs were used as analytes and injected at 100 nM concentration for 240 sec with a dissociation time of 300 sec at a flow rate of 30 μL/min. Binding kinetics measurements were done using the captured antibodies with injects of two-fold serial dilutions of the analytes of 3 nM to 100 nM. […] Chip surfaces were regenerated with 2 min injects of the regeneration buffer provided with the capture kit. Sensorgrams were double referenced with a blank chip surface and HBS-EP buffer blanks. Data analysis was performed using the BIAevaluation software v4.1.
# [2] = molecular target: T3, human IL13 (IL012, Millipore); assay: SPR, BIAcore 3000; antibody captured by anti-human Fc, antigen as analyte
# Protocol: as §1
# [3] = molecular target: T4, human HER2 (1129-ER, R&D Systems) (human, UniProt P04626 23-652); assay: SPR; HER2 captured with the anti-human Fc antibody, antibody constructs as analytes (method in paragraph 368); FIG. 5A-5B
# T4 construct: also called Receptor tyrosine-protein kinase erbB-2
# Protocol: as §1
# [4] = molecular target: T3, human IL13 (IL012, Millipore); assay: SPR, BIAcore 3000; antibody captured by anti-human Fc, antigen as analyte; the mark X is not explained
# Protocol: as §1, with “Data analysis was performed using the BIAevaluation software v4.1.” left out
# [5] = molecular target: T4, human HER2 (1129-ER, R&D Systems); assay: SPR (BIAcore 3000), binding test with HER2 captured by the anti-human Fc antibody, constructs injected at 100 nM; response as % of theoretical Rmax
# [6] = molecular target: T5, human PD-1 (8986-PD, R&D Systems) (human, UniProt Q15116 25-167); assay: SPR, BIAcore 3000; antibody captured by anti-human Fc, antigen as analyte; column head says nM, but kd/ka gives M
# T5 sequence (Q15116 25-167 limits assumed): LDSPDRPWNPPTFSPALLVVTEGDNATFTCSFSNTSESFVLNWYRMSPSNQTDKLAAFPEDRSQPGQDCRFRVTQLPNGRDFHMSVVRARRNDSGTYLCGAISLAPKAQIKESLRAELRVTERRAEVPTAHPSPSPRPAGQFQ
# Protocol: as §1
# [7] = molecular target: T5, human PD-1 (8986-PD, R&D Systems); assay: SPR, BIAcore 3000; antibody captured by anti-human Fc, antigen as analyte
# Protocol: as §1
# [8] = molecular target: T1, Human IL4 (IL004, Millipore); assay: SPR, BIAcore 3000; antibody captured by anti-human Fc, antigen as analyte; column head says nM, but kd/ka gives M
# Protocol: as §1
# [9] = molecular target: T1, Human IL4 (IL004, Millipore); assay: SPR, BIAcore 3000; antibody captured by anti-human Fc, antigen as analyte
# Protocol: as §1
# [10] = molecular target: CD123 on THP-1 target cells (UniProt P26951 19-378, limits assumed); assay: cell-based or functional assay
# [11] = molecular target: T2, human CD123-Fc-His fusion protein …; assay: SPR, Biacore 8K; CD123-Fc-His captured by anti-His, antibody as analyte, 1:1 Langmuir fit
# Protocol: Binding of antigens to the antibody constructs was measured using surface plasmon resonance (SPR) with a BIAcore 8K instrument (GE Healthcare) with HBS-EP+ buffer (GE Healthcare). For binding kinetics and affinity determination human CD3εδ-Fc-His and human CD123-Fc-His fusion proteins (both from internal source) were used as antigens. The anti-His capture antibody (His capture kit, GE Life Sciences) was immobilized via primary amine groups (11000 RU) on a research grade CM5 chip (GE Life Sciences) using standard procedures. Antigens were captured by the anti-His capture chip surface at a flow rate of 10 μL/min for 90 sec to reach antibody binding levels between 10 and 30 RU. […] Dissociation was measured at 30 μL/min by injection of HBS-EP+ buffer for 1200 sec. The chip surface was regenerated by inject of regeneration buffer (His capture kit, GE Life Sciences). Sensorgrams were double referenced with a blank chip surface and H BS-EP+ buffer blanks. Data were fitted with a 1:1 Langmuir binding model for determination of kinetic and affinity constants ka, kd and KD using Biacore 8K Evaluation software v1.11.7442 (GE Healthcare).
binder,measurement,setting,value
B1,Kd,[1],0.0269 nM
same,koff,[2],3.46e-05 s⁻¹
same,kon,[2],1.28e+06 M⁻¹ s⁻¹
B2,binding result,[3],no binding (tested: 100 nM)
B3,binding result,[3],no binding (tested: 100 nM)
B4,binding result,[3],no binding (tested: 100 nM)
B5,koff,[4],6.56e-07 s⁻¹
same,binding result,[5],no binding (tested: 100 nM)
same,Kd,[1],0.000425 nM
same,kon,[2],1.54e+06 M⁻¹ s⁻¹
B6,Kd,[1],0.00568 nM
same,Kd,[6],22.1 nM
same,koff,[2],1.66e-05 s⁻¹
same,kon,[2],2.92e+06 M⁻¹ s⁻¹
same,koff,[7],0.0029 s⁻¹
same,kon,[7],131000 M⁻¹ s⁻¹
B7,Kd,[8],0.00155 nM
same,koff,[9],0.000161 s⁻¹
same,kon,[9],1.04e+08 M⁻¹ s⁻¹
B8,"Cytotox EC50 (dead CFSE/7-AAD double positive THP-1 target cells; human pan T cells, effector:target 10:1, 20 h)",[10],0.00095 nM
same,Kd,[11],0.332 nM
B9,Kd,[11],0.287 nM
